Sequences and labels used below:
B1: Hammerhead Ribozyme (parent)
chain: ACCGGAUGUGCUUUCCGGUCUGAUGAGUCCGUGAGGACGAAACAG

Consider 167 variants from the RNAGym collection of RNA variant scans (doi:10.7554/elife.80360).

The variants in the data set derive from B1. The experiment in a line: self-cleavage, relative activity (ratio to wild type); higher = more cleavage; co-transcriptional.
Take G4A A6G: the self-cleavage was 0.355. C3G G39C: the self-cleavage amounted to 0.288.

For C3G G39A, the self-cleavage was determined as 0.31. Under C3G G39U stands 0.284; under C3U U14C, 0.669; under C3U U14G, 0.78. Under C3U U14A stands 0.71. The value for C3G G5A was 0.57; that for C3G G5C was 0.268; that for C3G G5U was 0.305. Take C3U C11U: the self-cleavage amounted to 0.504. Under C3U C11A stands 1.16; under C3U C11G, 1.25. With C3U U12C, the self-cleavage amounted to 0.99. The value for C3U U12G was 0.843; that for C3U U12A was 1.04; that for G4A G8U was 0.696. For the variant G4A G8C, the self-cleavage came to 0.46. Under G4A G8A stands 0.555; under C3G A37G, 0.334; under C3G A37U, 0.327. Under C3G A37C stands 0.293; under C3G A41G, 0.274; under C3G A41C, 0.299. The value for C3G A41U was 0.3.

Turning to G4A C16U, the self-cleavage stood at 0.781. Under G4A C16G stands 0.977; under G4A C16A, 0.907; under C3U G27C, 0.599. Under C3U G27A stands 0.93; under C3U G27U, 0.554. The value for C3G C38U was 0.37; that for C3G C38A was 0.279.

In the case of C3G C38G, the self-cleavage worked out at 0.279. Under C3G A44C stands 0.374. The value for C3G A44U was 0.32.

On to C3G A44G, for which the self-cleavage turned out to be 0.667. The value for C3G C29G was 0.345; that for C3G C29U was 0.418. Take C3G C29A: the self-cleavage was 0.324. Consider C3G G8C, for which the self-cleavage came to 0.452.

On to C3G G8U, for which the self-cleavage amounted to 0.656.

On to C3G G8A, for which the self-cleavage came to 0.406. The value for C3G C16U was 0.327.

As for C3G C16G, the self-cleavage was 0.258. Take C3G C16A: the self-cleavage turned out to be 0.39. The value for C3U U21A was 0.747; that for C3U U21C was 0.731. Under C3U U21G stands 0.558; under C3G G17A, 0.511; under C3G G17U, 0.583. The value for C3G G17C was 0.617. With C3U C43A, the self-cleavage was found to be 0.344.

Consider C3U C43U, for which the self-cleavage turned out to be 0.492.

In the case of C3U C43G, the self-cleavage amounted to 0.385.

Regarding C3U C16G, the self-cleavage came out at 0.492.

With C3U C16U, the self-cleavage stood at 0.955.

As for C3U C16A, the self-cleavage worked out at 0.476. Under G4A A34U stands 0.49; under G4A A34C, 0.35. In the case of G4A A34G, the self-cleavage was determined as 0.378. The value for C3G C11G was 0.647; that for C3G C11U was 0.314; that for C3G C11A was 0.702. The value for C3U C38G was 0.745; that for C3U C38A was 0.577. The value for C3U C38U was 0.999; that for C3G U7A was 0.471. For the variant C3G U7C, the self-cleavage came to 0.462. The value for C3G U7G was 0.625; that for C3G U14G was 0.557.

In the case of C3G U14A, the self-cleavage was found to be 0.347.

For the variant C3G U14C, the self-cleavage stood at 0.56. Under C3G G22A stands 0.304; under C3G G22U, 0.276; under C3G G22C, 0.292.

Regarding C3U G5U, the self-cleavage is 1.4. The value for C3U G5C was 0.351; that for C3U G5A was 0.491; that for C3U G36C was 0.424. The value for C3U G36A was 0.617; that for C3U G36U was 0.491; that for C3U A34G was 0.91. Turning to C3U A34C, the self-cleavage came to 0.851. Under C3U A34U stands 0.947. Under C3U U13G stands 0.866; under C3U U13C, 1.33. On to C3U U13A, for which the self-cleavage was 1.1. With G4A, the self-cleavage is 0.602. Under C3U G25C stands 0.315; under C3U G25A, 0.368. Under C3U G25U stands 0.345. The value for C3U G10C was 1.05; that for C3U G10A was 1.47. As to C3U G10U, the self-cleavage came to 1.22. The value for C3G U24A was 0.511. On to C3G U24C, for which the self-cleavage came out at 0.477. The value for C3G U24G was 0.44.

Take C3G G33A: the self-cleavage was 0.577. Under C3G G33U stands 0.591.

For the variant C3G G33C, the self-cleavage came to 0.468. Consider C3U C29G, for which the self-cleavage was determined as 0.594. For the variant C3U C29A, the self-cleavage is 0.593. The value for C3U C29U was 0.926; that for G4A C29A was 0.374. Consider G4A C29U, for which the self-cleavage stood at 0.543. Under G4A C29G stands 0.357; under C3U A23U, 0.347; under C3U A23G, 0.331. Under C3U A23C stands 0.491. The value for C3U G8A was 1.25; that for C3U G8C was 0.936. Consider C3U G8U, for which the self-cleavage worked out at 0.945.

In the case of C3G A23U, the self-cleavage amounted to 0.242.

With C3G A23C, the self-cleavage stood at 0.328. The value for C3G A23G was 0.257; that for C3G G35U was 0.32. The value for C3G G35C was 0.248; that for C3G G35A was 0.292.

C3A U32A: the self-cleavage stood at 0.7. On to C3A U32G, for which the self-cleavage amounted to 0.355. Under C3A U32C stands 0.803. For C3U U19C, the self-cleavage was 0.539. The value for C3U U19G was 0.38; that for C3U U19A was 0.385. As for C3U G22U, the self-cleavage is 0.381.

As for C3U G22C, the self-cleavage stood at 0.341.

In the case of C3U G22A, the self-cleavage came out at 0.381.

Take C3A U28C: the self-cleavage was found to be 0.354. Take C3A U28A: the self-cleavage stood at 0.311. C3A U28G: the self-cleavage is 0.34. The value for G4A C15U was 0.532; that for G4A C15G was 0.419. With G4A C15A, the self-cleavage turned out to be 0.443. The value for G4A G5A was 0.54; that for G4A G5U was 0.398; that for G4A G5C was 0.365. The value for C3G G45A was 0.371. As for C3G G45C, the self-cleavage worked out at 0.35. C3G G45U: the self-cleavage was 0.374. The value for C3U A42G was 0.393; that for C3U A42U was 0.38; that for C3U A42C was 0.406. The value for C3G C15U was 0.231; that for C3G C15A was 0.298.

C3G C15G: the self-cleavage stood at 0.314. The value for C3G A40C was 0.284; that for C3G A40U was 0.309.

With C3G A40G, the self-cleavage worked out at 0.341.

Regarding C3U A37G, the self-cleavage was 0.799. The value for C3U A37U was 0.794. Take C3U A37C: the self-cleavage turned out to be 0.566.

In the case of G4A A40C, the self-cleavage was 0.359. Under G4A A40G stands 0.379; under G4A A40U, 0.325; under C3A U24A, 0.811. The value for C3A U24C was 0.94; that for C3A U24G was 0.574; that for C3G A34G was 0.409. Under C3G A34C stands 0.422; under C3G A34U, 0.389; under G4A A26G, 0.35. Take G4A A26U: the self-cleavage amounted to 0.472. On to G4A A26C, for which the self-cleavage was found to be 0.302.

Take C3A U21C: the self-cleavage worked out at 0.376. Under C3A U21G stands 0.358; under C3A U21A, 0.37.
